First the molecules themselves.
T1: human IL-2Rβ (human, UniProt P14784 27-239)
T1 sequence (looked up): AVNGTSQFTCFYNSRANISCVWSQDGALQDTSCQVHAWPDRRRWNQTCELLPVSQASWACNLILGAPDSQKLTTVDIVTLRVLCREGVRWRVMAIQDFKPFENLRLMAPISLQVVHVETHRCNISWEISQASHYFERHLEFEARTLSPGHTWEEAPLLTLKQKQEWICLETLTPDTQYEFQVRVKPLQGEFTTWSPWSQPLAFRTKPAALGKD

T2: human gamma (γ) common chain expressed on CHO cells (human, UniProt P31785 23-369)
T2 construct: whole, on cells; Control protein; also called human IL-2R-γ common subunit; human γ-common
T2 sequence (looked up): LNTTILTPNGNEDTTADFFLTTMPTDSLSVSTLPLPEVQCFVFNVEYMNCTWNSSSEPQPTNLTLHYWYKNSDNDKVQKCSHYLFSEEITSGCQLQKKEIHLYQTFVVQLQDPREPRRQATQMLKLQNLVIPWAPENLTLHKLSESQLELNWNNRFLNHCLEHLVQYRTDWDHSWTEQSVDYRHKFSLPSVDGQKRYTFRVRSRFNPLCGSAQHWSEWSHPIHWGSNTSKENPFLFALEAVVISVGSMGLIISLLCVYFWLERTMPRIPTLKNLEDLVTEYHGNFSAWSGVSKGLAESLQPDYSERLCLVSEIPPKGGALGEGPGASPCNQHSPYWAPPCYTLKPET

B1: AbG (antibody, IgG1, V domains shown)
VH: QVQLQESGPGLVKPSETLSLTCAVSGYSISSGYYWGWIRQPPGKGLEWIGSISHTGNTYYNPPLKSRVTISVDTSKNQFSLKLSSVTAADTAVYYCARGGGISRPEYWGQGTLVTVSS
VL: SSELTQDPAVSVALGQTVRITCQGDSLRTYYASWYQQKPGQAPVLVIYGKHKRPSGIPDRFSGSSSGNTASLTITGAQAEDEADYYCVTRSVKGNPHVLFGGGTQLTVL
notes: As for AbA: IgG1/lambda, CDR3 graft, residue limits derived; also called VHP/VL18
B2: AbF (antibody, IgG1, V domains shown)
VH: B1 VH
VL: B1 VL with V88S, V92R
notes: As for AbA: IgG1/lambda, CDR3 graft, residue limits derived; also called VHP/VL17
B3: AbB (antibody, IgG1, V domains shown)
VH: B1 VH
VL: B1 VL with T89S, S91A, K93V
notes: As for AbA: IgG1/lambda, CDR3 graft, residue limits derived; also called VHP/VL3
B4: AbK (antibody, IgG1, V domains shown)
VH: B1 VH with G99F, G100M, I102F, S103G
VL: B1 VL with T89S, S91A, K93V
notes: As for AbA: IgG1/lambda, CDR3 graft, residue limits derived; also called VH3/VL3
B5: AbC (antibody, IgG1, V domains shown)
VH: B1 VH
VL: B1 VL with V88S, T89S, V92R, K93H
notes: As for AbA: IgG1/lambda, CDR3 graft, residue limits derived; also called VHP/VL11
B6: AbA (antibody, V domains shown)
VH: B1 VH
VL: B1 VL with T89A, K93V
notes: Human IgG1/lambda, transiently expressed; also called VHP/VL2

Residue numbers refer to the chain shown, from its start.

The first test has as its target T1, human IL-2Rβ. Kind of test: SPR, Ab captured. How it is done: (§1) The specificity of binding of a subset of transiently expressed anti-IL-21R binding proteins (here antibodies) was tested on a BIACORE™ 2000 surface plasmon resonance instrument. Anti-human-IgG, anti-murine immunoglobulin antibodies, and murine IL-21R-H/F were immobilized onto a research-grade carboxymethyl-dextran chip (CM5) using standard amine coupling. The sensor chip surface was activated with EDC/NHS for 7 min at a flow rate of 20 μl/min. The first flow cell was used as reference surface to correct for bulk refractive index, matrix effects, and nonspecific binding. […] Remaining activated groups were blocked with 1.0 M ethanolamine (pH 8.0). The molecular weights of the anti-human IgG and the anti-murine IgG were both 150 kD, and the molecular weight of the IL-21R monomer was 27 kD.
(§2) Conditioned media containing anti-IL-21R antibodies and antibody controls (murine anti-human IL-2Rβ and murine anti-human IL-4R(R&D Systems, Minneapolis, Minn.); human anti-human IL-13 (Wyeth, Cambridge, Mass.)) were diluted in HBS/EP buffer supplemented with 0.2% bovine serum and injected onto all four flow cells of the BIACORE™ chip, capturing 500-700 (RU) of antibody on the species-appropriate capture antibody. Following a 5 sec washing period, 50 nM solutions of a positive control protein (murine IL-21R-H/F), two human proteins related to IL-21R (human IL-2Rβ and human sIL-4R(R&D Systems)), or an unrelated His/FLAG-tagged protein (human IL-13-H/F) were injected over the captured antibodies on the chip. The association and dissociation phases were monitored for 120 and 180 sec, respectively, followed by two 5 μl injections of glycine (pH 1.5) to regenerate a fully active capturing surface. All binding experiments were done at 25° C. in HBS/EP buffer. Blank and buffer effects were subtracted for each sensorgram using double referencing.
On to B1, for which the binding result is reported as “no binding (tested: 50 nM)”.
As to B2, the binding result was “no binding (tested: 50 nM)”.
B3: the binding result was “no binding (tested: 50 nM)”.
On the same count and under the same terms, to B4 belongs “no binding (tested: 50 nM)”; to B5, “no binding (tested: 50 nM)”; to B6, “no binding (tested: 50 nM)”.

For a further test, the target named is T3, human soluble IL-4R (human, UniProt P24394 26-232, limits assumed).
T3 construct: also called human sIL-4R
As to the kind of experiment: SPR, Ab captured. How it is done:
as §1, §2
As for B1, the binding result is recorded as “no binding (tested: 50 nM)”.
B2: the binding result is on record as “no binding (tested: 50 nM)”.
Take B3: the binding result was “no binding (tested: 50 nM)”.
On the same count and under the same terms, to B4 belongs “no binding (tested: 50 nM)”.
Regarding B5, the binding result is listed as “no binding (tested: 50 nM)”.
B6: the binding result is “no binding (tested: 50 nM)”.

In a further test the target is T4, human IL-13-His/FLAG (human, UniProt P35225 35-146, limits assumed).
T4 construct: Unrelated His/FLAG-tagged control; also called human IL-13-H/F
T4 sequence (P35225 35-146 limits assumed): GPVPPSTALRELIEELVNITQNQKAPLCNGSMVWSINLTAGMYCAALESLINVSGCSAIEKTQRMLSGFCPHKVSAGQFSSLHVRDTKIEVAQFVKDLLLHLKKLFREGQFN
As to the kind of experiment: SPR, Ab captured. How it is done: as §1, §2
(SPR reads the build-up and loss of mass on a sensor chip optically.)
Turning to B1, the binding result is on record as “no binding (tested: 50 nM)”.
Regarding B2, the binding result is listed as “no binding (tested: 50 nM)”.
Regarding B3, the binding result is recorded as “no binding (tested: 50 nM)”.
Consider B4, for which the binding result is reported as “no binding (tested: 50 nM)”.
For the molecule B5, the binding result is “no binding (tested: 50 nM)”.
For the molecule B6, the binding result is on record as “no binding (tested: 50 nM)”.

In another test the target is T5, human IL-21R expressed on cells (human, UniProt Q9HBE5 20-538).
T5 construct: also called human IL-21R-BaF3; human IL-21R-TF1
T5 sequence (Q9HBE5 20-538 limits assumed): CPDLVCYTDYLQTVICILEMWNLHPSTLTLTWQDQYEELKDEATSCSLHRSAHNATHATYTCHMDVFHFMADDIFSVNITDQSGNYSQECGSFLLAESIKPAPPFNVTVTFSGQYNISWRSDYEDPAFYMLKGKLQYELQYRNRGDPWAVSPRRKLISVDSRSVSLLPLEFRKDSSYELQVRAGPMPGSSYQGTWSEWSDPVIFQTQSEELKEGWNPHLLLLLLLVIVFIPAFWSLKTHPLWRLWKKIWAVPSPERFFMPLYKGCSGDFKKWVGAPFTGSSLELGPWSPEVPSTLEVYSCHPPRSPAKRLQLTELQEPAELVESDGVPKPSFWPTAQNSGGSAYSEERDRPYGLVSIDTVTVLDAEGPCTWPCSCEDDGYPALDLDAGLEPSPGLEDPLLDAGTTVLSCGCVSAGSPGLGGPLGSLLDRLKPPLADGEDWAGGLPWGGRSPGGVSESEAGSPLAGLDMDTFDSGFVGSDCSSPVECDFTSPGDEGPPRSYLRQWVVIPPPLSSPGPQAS
Kind of test: cell ELISA, CHO cells. Here is the method:
(§3) A subset of binding proteins was tested for binding to rat, cynomolgus monkey, human IL-21R, or human IL-2R-γ common subunit expressed transiently on the surfaces of CHO-PA-Dukx cells. Cells were transfected 48 hr prior to the assay. On the day of the assay, cells were washed gently 5× in PBS containing 0.9 mM CaCl₂ and 0.45 mM MgCl₂ (PBS/CaMg) on an automated plate washer (Titertek, Huntsville, Ala.), and blocked for 1 hr at RT in PBS/CaMg/5% nonfat dry milk. Conditioned media from transiently expressed anti-IL-21R IgGs were serially diluted in blocking buffer and added to the cells in the blocked plates for 1 hr at RT. Cells were washed 5× with PBS/CaMg and then incubated with horseradish peroxidase-conjugated anti-human IgG for 1 hr at RT. Cells were then washed 10× in PBS/CaMg and all of the wash buffer was removed. Cells were incubated with 100 μl TMB until the color reaction reached saturation, stopped with 100 μl of 0.18 M H₂SO₄, and read at A450 on a Perkin Elmer ENVISION™ plate reader.
As to B1, the “A450 (13 nM Ab)” value was 1.35 A450.
As for B2, the “A450 (13 nM Ab)” value was 1.35 A450.
For the molecule B3, the “A450 (13 nM Ab)” value was 1.15 A450.
Same read-out and setting: with B4 the figure was 1.36 A450; with B5, 1.22 A450; with B6, 1.2 A450.

The target in another test is T6, rat IL-21R expressed on cells (rat).
T6 construct: whole, on cells
Kind of test: cell ELISA, CHO cells. How it is done: as §3
For orientation: ELISA stands for enzyme-linked immunosorbent assay.
Take B1: the “A450 (13 nM Ab)” value was found to be 1.11 A450.
The same measure, in the same setting: to B2 belongs 1 A450; to B3, 1.09 A450; to B4, 1.18 A450.
For the molecule B5, the “A450 (13 nM Ab)” value worked out at 0.999 A450.
In the case of B6, the “A450 (13 nM Ab)” value was found to be 1.12 A450.

A further test deals with T7, cynomolgus monkey IL-21R expressed on cells (cynomolgus monkey, UniProt G7Q0S8 41-559).
T7 construct: whole, on cells
Kind of test: cell ELISA, CHO cells. How it is done:
as §3
In the case of B1, the “A450 (13 nM Ab)” value amounted to 1.3 A450.
With B2, the “A450 (13 nM Ab)” value was found to be 1.46 A450.
Still for that read-out and setting: with B3 the figure was 1.33 A450; with B4, 1.34 A450.
Still for that read-out and setting: to B5 belongs 1.28 A450; to B6, 1.35 A450.

The next test has as its target T2, human gamma (γ) common chain expressed …. Kind of test: cell ELISA, CHO cells. Here is the method: as §3
In the case of B1, the “A450 (13 nM Ab)” value turned out to be 0.108 A450.
For B3, the “A450 (13 nM Ab)” value was found to be 0.107 A450.
For B4, the “A450 (13 nM Ab)” value came to 0.108 A450.
With B5, the “A450 (13 nM Ab)” value came out at 0.137 A450.
Regarding B6, the “A450 (13 nM Ab)” value stood at 0.111 A450.

The next test concerns the target T5, human IL-21R expressed on cells. Kind of test: cell-based or functional assay.
B1: the “Human IL-21R-BaF3 Proliferation IC50” value is 0.77 nM and the “Human IL-21R-TF1 Proliferation IC50” value turned out to be 3.84 nM.
With B2, the “Human IL-21R-BaF3 Proliferation IC50” value came to 0.54 nM and the “Human IL-21R-TF1 Proliferation IC50” value came to 2.41 nM.
The like results for B3 were, in that order, 1.14 nM and 3.34 nM.
The corresponding values for B4 are 0.98 nM and 4 nM.
The corresponding values for B5 are 0.82 nM and 3.36 nM.
For B6, the “Human IL-21R-BaF3 Proliferation IC50” value is 0.97 nM and the “Human IL-21R-TF1 Proliferation IC50” value was 3.8 nM.

For a further test, the target named is murine IL-21R expressed on cells (murine, UniProt Q9JHX3 20-529). As to the kind of experiment: cell-based or functional assay.
murine IL-21R expressed on cells, sequence (Q9JHX3 20-529 limits assumed): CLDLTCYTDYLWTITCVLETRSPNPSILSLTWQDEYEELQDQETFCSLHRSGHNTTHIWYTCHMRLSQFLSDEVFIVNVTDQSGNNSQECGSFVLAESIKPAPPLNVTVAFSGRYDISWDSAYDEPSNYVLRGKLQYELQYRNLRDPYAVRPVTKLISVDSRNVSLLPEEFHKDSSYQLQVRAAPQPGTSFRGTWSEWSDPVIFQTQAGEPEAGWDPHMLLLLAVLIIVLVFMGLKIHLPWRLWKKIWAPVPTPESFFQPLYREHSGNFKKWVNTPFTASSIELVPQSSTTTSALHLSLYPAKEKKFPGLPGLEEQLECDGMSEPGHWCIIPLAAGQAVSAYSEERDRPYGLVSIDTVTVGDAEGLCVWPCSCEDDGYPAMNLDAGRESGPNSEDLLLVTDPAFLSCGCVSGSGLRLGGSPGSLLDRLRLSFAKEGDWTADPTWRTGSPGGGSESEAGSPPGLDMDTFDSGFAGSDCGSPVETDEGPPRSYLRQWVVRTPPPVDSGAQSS
Consider B1, for which the “Murine IL-21R-BaF3 Proliferation IC50” value amounted to 0.07 nM.
With B2, the “Murine IL-21R-BaF3 Proliferation IC50” value came to 0.304 nM.
Take B3: the “Murine IL-21R-BaF3 Proliferation IC50” value was determined as 0.421 nM.
B4: the “Murine IL-21R-BaF3 Proliferation IC50” value came to 0.079 nM.
Consider B5, for which the “Murine IL-21R-BaF3 Proliferation IC50” value was determined as 0.03 nM.
Same read-out and setting: with B6 the figure was 0.08 nM.

A further test addresses T6, rat IL-21R expressed on cells. As to the kind of experiment: cell-based ELISA on CHO cells transiently expressing rat IL-21R; HRP anti-human IgG, A450. Here is the method: (§4) FIG. 6(a-l) depicts the binding of 21 anti-IL-21R IgGs to CHO cells transiently expressing human IL-21R (FIGS. 6a-c), rat IL-21R (FIGS. 6d-f), cynomolgus monkey IL-21R (FIGS. 6g-i), and human gamma common chain (FIGS. 6j-1). CHO cells were transiently transfected with IL-21R or the control gamma common chain, and binding was detected with HRP-conjugated anti-human IgG in a cell-based ELISA.
as §3
As to B1, the EC50 (read off the curve) (commonly the concentration at which the effect is half-maximal) was around 0.9 nM.
With B2, the “EC50 (read off the curve)” value was around 0.7 nM.
B3: the “EC50 (read off the curve)” value is around 2 nM.
Still for that read-out and setting: to B4 belongs around 1 nM; to B5, around 1 nM; to B6, around 0.8 nM.

The target of the next test is T5, human IL-21R expressed on cells. As to the kind of experiment: cell-based ELISA on CHO cells transiently expressing human IL-21R; HRP anti-human IgG, A450. How it is done: as §4, §3
As to B1, the “EC50 (read off the curve)” value was around 0.5 nM.
Turning to B2, the “EC50 (read off the curve)” value is around 0.5 nM.
B3: the “EC50 (read off the curve)” value was around 1 nM.
For the molecule B5, the “EC50 (read off the curve)” value is around 0.7 nM.
Regarding B6, the “EC50 (read off the curve)” value was around 0.5 nM.

The target in the next test is T7, cynomolgus monkey IL-21R expressed on …. As to the kind of experiment: cell-based ELISA on CHO cells transiently expressing cynomolgus monkey IL-21R; HRP anti-human IgG, A450. Here is the method: as §4, §3
Turning to B1, the “EC50 (read off the curve)” value was around 0.5 nM.
B2: the “EC50 (read off the curve)” value is around 0.5 nM.
In the case of B3, the “EC50 (read off the curve)” value was around 0.6 nM.
In the case of B4, the “EC50 (read off the curve)” value is around 2 nM.
As for B5, the “EC50 (read off the curve)” value was around 2 nM.
Same read-out and setting: with B6 the figure was around 0.5 nM.

The target in a further test is T2, human gamma (γ) common chain expressed …. Kind of test: cell-based ELISA on CHO cells transiently expressing human gamma common chain; HRP anti-human IgG, A450. Here is the method: as §4, §3
Consider B1, for which the binding result is given as “no binding (tested: 40 nM)”.
As to B3, the binding result was “no binding (tested: 40 nM)”.
B4: the binding result is recorded as “no binding (tested: 40 nM)”.
In the case of B5, the binding result is recorded as “no binding (tested: 40 nM)”.
Turning to B6, the binding result is recorded as “no binding (tested: 40 nM)”.

The values are drawn from patent US20120276102A1 (Pfizer, published 2012).
